Reference: publication PMC4919518

B1: guide 5'P-RNA + 70-base target DNA (DNA:RNA)
RNA: UUACAACCUACUACCUCG
DNA: TAAAATCTTAAAGTTATTATTTCTATACGAGGTAGTAGGTTGTAATTATCACAATTTATAGTAGTATTAA
modifications: 5'-phosphate on guide
B2: 18-nt guide RNA/18-nt target DNA (crystal) (DNA:RNA)
RNA: UUACAACCUACUACCUCG
DNA: CGAGGTAGTAGGTTGTAA
modifications: 5'-phosphate on guide
B3: 5'P-RNA/DNA (RR/DD) (DNA:RNA)
RNA: UUACAACCUACUACCUCG
DNA: CGAGGTAGTAGGTTGTAA
modifications: 5'-phosphate on guide

What was measured:
[1] = target: T1, RsAgo delP45-W63 (Rhodobacter sphaeroides (ATCC 17025D-5), UniProt A4WYU7 1-777, del45-63); assay: EMSA; RsAgo-guide RNA complex titrated on target DNA; FP: 20 mM HEPES-KOH pH 7.5, 200 mM NaCl, 5 mM MgCl2, 0.01 mg/ml E. coli total tRNA, 0.01% NP-40, 10 pM probe, 25 C; EMSA: 20 mM HEPES-KOH pH 7.5, 200 mM NaCl, 5
T1 sequence: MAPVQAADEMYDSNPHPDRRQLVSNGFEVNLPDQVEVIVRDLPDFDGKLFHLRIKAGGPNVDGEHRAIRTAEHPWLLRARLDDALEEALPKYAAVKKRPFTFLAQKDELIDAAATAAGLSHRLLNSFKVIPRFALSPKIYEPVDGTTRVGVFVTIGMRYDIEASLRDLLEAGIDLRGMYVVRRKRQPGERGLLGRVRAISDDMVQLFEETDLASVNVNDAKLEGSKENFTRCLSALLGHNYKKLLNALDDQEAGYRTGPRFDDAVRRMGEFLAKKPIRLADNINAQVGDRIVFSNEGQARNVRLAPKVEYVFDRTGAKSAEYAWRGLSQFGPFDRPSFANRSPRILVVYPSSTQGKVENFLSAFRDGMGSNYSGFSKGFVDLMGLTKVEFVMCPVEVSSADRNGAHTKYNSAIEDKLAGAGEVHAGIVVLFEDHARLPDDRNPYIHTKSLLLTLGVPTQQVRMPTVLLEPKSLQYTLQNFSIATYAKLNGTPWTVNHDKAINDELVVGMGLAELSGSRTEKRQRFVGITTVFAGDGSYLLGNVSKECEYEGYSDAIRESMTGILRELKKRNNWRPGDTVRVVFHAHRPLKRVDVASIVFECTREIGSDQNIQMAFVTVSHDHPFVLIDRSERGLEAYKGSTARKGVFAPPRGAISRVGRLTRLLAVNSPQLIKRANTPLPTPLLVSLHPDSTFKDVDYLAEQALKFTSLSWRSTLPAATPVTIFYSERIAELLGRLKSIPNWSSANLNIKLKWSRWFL

[2] = target: T2, RsAgo WT (Rhodobacter sphaeroides (ATCC 17025D-5), UniProt A4WYU7 1-777); assay: fluorescence polarization; 5 mM Mg2+; FP: 20 mM HEPES-KOH pH 7.5, 200 mM NaCl, 5 mM MgCl2, 0.01 mg/ml E. coli total tRNA, 0.01% NP-40, 10 pM probe, 25 C; EMSA: 20 mM HEPES-KOH pH 7.5, 200 mM NaCl, 5
T2 sequence: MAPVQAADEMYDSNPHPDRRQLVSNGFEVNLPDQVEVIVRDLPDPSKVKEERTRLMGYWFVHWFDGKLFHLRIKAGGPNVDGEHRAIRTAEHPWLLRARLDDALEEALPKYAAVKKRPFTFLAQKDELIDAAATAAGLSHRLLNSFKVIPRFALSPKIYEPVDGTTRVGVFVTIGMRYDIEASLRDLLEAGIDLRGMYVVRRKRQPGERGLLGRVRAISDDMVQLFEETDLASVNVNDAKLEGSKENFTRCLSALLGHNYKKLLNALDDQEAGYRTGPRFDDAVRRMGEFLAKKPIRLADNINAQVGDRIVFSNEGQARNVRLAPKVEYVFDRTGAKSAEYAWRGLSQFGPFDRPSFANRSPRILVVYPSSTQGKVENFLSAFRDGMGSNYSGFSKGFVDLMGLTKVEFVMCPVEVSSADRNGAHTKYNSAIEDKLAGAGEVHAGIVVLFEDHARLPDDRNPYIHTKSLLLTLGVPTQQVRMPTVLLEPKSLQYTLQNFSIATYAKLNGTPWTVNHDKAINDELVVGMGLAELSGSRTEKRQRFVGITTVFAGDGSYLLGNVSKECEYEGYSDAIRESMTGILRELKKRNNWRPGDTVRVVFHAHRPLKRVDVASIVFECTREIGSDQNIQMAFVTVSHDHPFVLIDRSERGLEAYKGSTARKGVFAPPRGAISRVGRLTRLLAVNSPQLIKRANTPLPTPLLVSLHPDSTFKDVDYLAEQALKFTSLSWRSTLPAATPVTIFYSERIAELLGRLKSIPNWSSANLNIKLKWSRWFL

[3] = target: T3, RsAgo delN20 (Rhodobacter sphaeroides (ATCC 17025D-5), UniProt A4WYU7 21-777, del1-20); assay: X-ray crystal structure (2 A); Mg2+ at guide phosphates 1 and 3 and L777 carboxylate; FP: 20 mM HEPES-KOH pH 7.5, 200 mM NaCl, 5 mM MgCl2, 0.01 mg/ml E. coli total tRNA, 0.01% NP-40, 10 pM probe, 25 C; EMSA: 20 mM HEPES-KOH pH 7.5, 200 mM NaCl, 5
T3 sequence: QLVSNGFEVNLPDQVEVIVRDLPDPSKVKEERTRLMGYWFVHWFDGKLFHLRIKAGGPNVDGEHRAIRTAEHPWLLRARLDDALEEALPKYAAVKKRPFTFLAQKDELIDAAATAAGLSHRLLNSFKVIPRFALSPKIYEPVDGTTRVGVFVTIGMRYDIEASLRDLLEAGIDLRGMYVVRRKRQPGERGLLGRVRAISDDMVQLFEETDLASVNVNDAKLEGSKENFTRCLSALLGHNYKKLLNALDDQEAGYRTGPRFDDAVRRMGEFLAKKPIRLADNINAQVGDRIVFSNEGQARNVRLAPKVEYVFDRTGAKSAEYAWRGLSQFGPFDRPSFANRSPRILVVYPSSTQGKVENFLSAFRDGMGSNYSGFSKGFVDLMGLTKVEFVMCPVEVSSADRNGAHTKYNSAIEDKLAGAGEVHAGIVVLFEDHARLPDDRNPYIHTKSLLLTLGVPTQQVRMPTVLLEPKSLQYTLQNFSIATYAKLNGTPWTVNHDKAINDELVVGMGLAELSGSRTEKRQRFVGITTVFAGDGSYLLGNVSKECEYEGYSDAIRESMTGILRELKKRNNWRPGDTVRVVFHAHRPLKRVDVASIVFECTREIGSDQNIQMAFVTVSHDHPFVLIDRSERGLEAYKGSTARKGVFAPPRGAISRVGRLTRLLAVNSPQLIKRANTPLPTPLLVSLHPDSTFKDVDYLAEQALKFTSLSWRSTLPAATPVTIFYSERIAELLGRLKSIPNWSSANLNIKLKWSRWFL

[4] = target: T2, RsAgo WT; assay: EMSA; 5 mM Mg2+; FP: 20 mM HEPES-KOH pH 7.5, 200 mM NaCl, 5 mM MgCl2, 0.01 mg/ml E. coli total tRNA, 0.01% NP-40, 10 pM probe, 25 C; EMSA: 20 mM HEPES-KOH pH 7.5, 200 mM NaCl, 5

| Binder | Kd [2] [nM] | further results |
| --- | --- | --- |
| B1 |  | binding result [1]: no binding |
| TTACAACCTACTACCTCG (ssDNA, 5'-phosphate) [5'P-DNA, FAM] | 42.6 ± 3.4 |  |
| AUACAACCUACUACCUCG (ssRNA, 5'-phosphate) [5'A-RNA, FAM] | 24.8 ± 1.7 |  |
| B2 |  | binding result [3]: binds |
| GUACAACCUACUACCUCG (ssRNA, 5'-phosphate) [5'G-RNA, FAM] | 181 ± 13.3 |  |
| B3 |  | binding result [4]: binds |
| UUACAACCUACUACCUCG (ssRNA, 5'-OH) [5'OH-RNA, FAM] | 1140 ± 54 |  |
| CUACAACCUACUACCUCG (ssRNA, 5'-phosphate) [5'C-RNA, FAM] | 67 ± 3.5 |  |
